Assay results taken from publication PMC6994259 (Nature, 2020).

T1: Sgf73 (S. cerevisiae, UniProt P53165 1-657)
T1 sequence: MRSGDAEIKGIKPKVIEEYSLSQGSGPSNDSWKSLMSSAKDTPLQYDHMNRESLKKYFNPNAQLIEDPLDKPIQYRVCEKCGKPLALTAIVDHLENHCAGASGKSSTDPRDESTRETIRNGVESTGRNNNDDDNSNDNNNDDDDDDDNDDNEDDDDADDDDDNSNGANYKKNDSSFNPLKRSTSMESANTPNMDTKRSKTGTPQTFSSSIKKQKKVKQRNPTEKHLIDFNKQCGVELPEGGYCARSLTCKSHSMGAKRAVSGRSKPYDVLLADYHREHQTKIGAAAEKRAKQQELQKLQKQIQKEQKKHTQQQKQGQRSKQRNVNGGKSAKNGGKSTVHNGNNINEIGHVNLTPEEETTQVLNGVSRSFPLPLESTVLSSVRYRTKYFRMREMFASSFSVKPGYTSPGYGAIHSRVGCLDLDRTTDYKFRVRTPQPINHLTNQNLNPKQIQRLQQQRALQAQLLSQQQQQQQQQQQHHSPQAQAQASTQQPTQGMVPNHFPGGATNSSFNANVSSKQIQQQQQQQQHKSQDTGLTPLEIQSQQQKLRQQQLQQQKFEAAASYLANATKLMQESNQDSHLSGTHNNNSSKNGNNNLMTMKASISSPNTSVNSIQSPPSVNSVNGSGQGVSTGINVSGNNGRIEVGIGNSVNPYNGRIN

T2: Spt20 (S. cerevisiae, UniProt P50875 1-604)
T2 sequence: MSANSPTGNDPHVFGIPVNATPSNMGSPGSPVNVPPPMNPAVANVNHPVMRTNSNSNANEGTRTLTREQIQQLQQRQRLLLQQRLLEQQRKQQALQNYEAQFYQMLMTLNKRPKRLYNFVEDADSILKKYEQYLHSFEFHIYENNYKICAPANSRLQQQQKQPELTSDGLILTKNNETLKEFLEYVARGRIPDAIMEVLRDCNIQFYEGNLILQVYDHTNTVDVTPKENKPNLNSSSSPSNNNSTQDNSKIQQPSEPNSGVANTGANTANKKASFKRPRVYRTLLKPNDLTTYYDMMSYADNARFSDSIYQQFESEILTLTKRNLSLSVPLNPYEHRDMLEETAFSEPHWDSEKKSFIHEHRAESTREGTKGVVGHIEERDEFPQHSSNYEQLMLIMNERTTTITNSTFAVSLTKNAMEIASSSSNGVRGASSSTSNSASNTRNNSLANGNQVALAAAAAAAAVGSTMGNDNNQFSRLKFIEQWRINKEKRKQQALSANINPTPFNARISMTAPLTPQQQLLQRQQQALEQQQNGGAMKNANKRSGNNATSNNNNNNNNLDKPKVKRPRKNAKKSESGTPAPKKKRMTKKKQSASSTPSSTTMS

B1: Ada1 (natural protein)
chain: MSAIQSPAPKPLQPTYPAASPASTNAYMKPGLIGSPAVSNHTEPNNGNNETAEPQGPNQRIDLGAMIEELTSLLGKESWTKYAQIISLFILGKLSRKELSNELELVFSPSAASLEKSNTNHHHSLVRLHNQLLLGIFANSLRENPLGRNGNESSWGFGNGSNNPNNKLKRINKHNSQIEVYKKIVMSLPLNDRNRLKMITKEAGKRGFIFCSVFQARLNNIPKIPIVTNPESLKRVKSNNLKTPLEWSQDIMNGFNVPLASESHSLPDTDSFYLRMVGIAREHGLVGTVDARCVELISLALDQYLKNIIEFTIDTVRYRRKKYSDYYDLNESGLYKSVSEMAADKRDAKIKQLDDDKNEDECADEAKSINNGNNSSKDDIGDISMSSITKAGEAVNEELHENRTISLTNEDIYDSLSIFPNLVEPSGSYYALTNLGLVNDDELVDMKSNIDDLPDFLNEKPTFTPLDERNVGTRHELNWLIKGILTED
B2: Taf12 (natural protein)
chain: MSSNPENSGVNANNNTGTGNADAITGAQQNMVLQPRQLQEMAAKFRTLLTEARNVGETTPRGKELMFQAAKIKQVYDALTLNRRRQQAAQAYNNTSNSNSSNPASIPTENVPNSSQQQQQQQQQTRNNSNKFSNMIKQVLTPEENQEYEKLWQNFQVRHTSIKEKETYLKQNIDRLEQEINKQTDEGPKQQLQEKKIELLNDWKVLKIEYTKLFNNYQNSKKTFYVECARHNPALHKFLQESTQQQRVQQQRVQQQQQQQQQQQQQQQQQQQQQQQRQGQNQRKISSSNSTEIPSVTGPDALKSQQQQQNTITATNNPRGNVNTSQTEQSKAKVTNVNATASMLNNISSSKSAIFKQTEPAIPISENISTKTPAPVAYRSNRPTITGGSAMNASALNTPATTKLPPYEMDTQRVMSKRKLRELVKTVGIDEGDGETVIDGDVEELLLDLADDFVTNVTAFSCRLAKHRKSDNLEARDIQLHLERNWNIRIPGYSADEIRSTRKWNPSQNYNQKLQSITSDKVAAAKNNGNNVASLNTKK

What was measured:
Assay in all cases: cryo-EM structure
Sgf73 = target: T1, Sgf73
Taf12 = target: B2
Spt20 = target: T2, Spt20
Tra1 = Tra1 (S. cerevisiae, UniProt P38811 1-3744)
Sequence of Tra1 (P38811 whole entry): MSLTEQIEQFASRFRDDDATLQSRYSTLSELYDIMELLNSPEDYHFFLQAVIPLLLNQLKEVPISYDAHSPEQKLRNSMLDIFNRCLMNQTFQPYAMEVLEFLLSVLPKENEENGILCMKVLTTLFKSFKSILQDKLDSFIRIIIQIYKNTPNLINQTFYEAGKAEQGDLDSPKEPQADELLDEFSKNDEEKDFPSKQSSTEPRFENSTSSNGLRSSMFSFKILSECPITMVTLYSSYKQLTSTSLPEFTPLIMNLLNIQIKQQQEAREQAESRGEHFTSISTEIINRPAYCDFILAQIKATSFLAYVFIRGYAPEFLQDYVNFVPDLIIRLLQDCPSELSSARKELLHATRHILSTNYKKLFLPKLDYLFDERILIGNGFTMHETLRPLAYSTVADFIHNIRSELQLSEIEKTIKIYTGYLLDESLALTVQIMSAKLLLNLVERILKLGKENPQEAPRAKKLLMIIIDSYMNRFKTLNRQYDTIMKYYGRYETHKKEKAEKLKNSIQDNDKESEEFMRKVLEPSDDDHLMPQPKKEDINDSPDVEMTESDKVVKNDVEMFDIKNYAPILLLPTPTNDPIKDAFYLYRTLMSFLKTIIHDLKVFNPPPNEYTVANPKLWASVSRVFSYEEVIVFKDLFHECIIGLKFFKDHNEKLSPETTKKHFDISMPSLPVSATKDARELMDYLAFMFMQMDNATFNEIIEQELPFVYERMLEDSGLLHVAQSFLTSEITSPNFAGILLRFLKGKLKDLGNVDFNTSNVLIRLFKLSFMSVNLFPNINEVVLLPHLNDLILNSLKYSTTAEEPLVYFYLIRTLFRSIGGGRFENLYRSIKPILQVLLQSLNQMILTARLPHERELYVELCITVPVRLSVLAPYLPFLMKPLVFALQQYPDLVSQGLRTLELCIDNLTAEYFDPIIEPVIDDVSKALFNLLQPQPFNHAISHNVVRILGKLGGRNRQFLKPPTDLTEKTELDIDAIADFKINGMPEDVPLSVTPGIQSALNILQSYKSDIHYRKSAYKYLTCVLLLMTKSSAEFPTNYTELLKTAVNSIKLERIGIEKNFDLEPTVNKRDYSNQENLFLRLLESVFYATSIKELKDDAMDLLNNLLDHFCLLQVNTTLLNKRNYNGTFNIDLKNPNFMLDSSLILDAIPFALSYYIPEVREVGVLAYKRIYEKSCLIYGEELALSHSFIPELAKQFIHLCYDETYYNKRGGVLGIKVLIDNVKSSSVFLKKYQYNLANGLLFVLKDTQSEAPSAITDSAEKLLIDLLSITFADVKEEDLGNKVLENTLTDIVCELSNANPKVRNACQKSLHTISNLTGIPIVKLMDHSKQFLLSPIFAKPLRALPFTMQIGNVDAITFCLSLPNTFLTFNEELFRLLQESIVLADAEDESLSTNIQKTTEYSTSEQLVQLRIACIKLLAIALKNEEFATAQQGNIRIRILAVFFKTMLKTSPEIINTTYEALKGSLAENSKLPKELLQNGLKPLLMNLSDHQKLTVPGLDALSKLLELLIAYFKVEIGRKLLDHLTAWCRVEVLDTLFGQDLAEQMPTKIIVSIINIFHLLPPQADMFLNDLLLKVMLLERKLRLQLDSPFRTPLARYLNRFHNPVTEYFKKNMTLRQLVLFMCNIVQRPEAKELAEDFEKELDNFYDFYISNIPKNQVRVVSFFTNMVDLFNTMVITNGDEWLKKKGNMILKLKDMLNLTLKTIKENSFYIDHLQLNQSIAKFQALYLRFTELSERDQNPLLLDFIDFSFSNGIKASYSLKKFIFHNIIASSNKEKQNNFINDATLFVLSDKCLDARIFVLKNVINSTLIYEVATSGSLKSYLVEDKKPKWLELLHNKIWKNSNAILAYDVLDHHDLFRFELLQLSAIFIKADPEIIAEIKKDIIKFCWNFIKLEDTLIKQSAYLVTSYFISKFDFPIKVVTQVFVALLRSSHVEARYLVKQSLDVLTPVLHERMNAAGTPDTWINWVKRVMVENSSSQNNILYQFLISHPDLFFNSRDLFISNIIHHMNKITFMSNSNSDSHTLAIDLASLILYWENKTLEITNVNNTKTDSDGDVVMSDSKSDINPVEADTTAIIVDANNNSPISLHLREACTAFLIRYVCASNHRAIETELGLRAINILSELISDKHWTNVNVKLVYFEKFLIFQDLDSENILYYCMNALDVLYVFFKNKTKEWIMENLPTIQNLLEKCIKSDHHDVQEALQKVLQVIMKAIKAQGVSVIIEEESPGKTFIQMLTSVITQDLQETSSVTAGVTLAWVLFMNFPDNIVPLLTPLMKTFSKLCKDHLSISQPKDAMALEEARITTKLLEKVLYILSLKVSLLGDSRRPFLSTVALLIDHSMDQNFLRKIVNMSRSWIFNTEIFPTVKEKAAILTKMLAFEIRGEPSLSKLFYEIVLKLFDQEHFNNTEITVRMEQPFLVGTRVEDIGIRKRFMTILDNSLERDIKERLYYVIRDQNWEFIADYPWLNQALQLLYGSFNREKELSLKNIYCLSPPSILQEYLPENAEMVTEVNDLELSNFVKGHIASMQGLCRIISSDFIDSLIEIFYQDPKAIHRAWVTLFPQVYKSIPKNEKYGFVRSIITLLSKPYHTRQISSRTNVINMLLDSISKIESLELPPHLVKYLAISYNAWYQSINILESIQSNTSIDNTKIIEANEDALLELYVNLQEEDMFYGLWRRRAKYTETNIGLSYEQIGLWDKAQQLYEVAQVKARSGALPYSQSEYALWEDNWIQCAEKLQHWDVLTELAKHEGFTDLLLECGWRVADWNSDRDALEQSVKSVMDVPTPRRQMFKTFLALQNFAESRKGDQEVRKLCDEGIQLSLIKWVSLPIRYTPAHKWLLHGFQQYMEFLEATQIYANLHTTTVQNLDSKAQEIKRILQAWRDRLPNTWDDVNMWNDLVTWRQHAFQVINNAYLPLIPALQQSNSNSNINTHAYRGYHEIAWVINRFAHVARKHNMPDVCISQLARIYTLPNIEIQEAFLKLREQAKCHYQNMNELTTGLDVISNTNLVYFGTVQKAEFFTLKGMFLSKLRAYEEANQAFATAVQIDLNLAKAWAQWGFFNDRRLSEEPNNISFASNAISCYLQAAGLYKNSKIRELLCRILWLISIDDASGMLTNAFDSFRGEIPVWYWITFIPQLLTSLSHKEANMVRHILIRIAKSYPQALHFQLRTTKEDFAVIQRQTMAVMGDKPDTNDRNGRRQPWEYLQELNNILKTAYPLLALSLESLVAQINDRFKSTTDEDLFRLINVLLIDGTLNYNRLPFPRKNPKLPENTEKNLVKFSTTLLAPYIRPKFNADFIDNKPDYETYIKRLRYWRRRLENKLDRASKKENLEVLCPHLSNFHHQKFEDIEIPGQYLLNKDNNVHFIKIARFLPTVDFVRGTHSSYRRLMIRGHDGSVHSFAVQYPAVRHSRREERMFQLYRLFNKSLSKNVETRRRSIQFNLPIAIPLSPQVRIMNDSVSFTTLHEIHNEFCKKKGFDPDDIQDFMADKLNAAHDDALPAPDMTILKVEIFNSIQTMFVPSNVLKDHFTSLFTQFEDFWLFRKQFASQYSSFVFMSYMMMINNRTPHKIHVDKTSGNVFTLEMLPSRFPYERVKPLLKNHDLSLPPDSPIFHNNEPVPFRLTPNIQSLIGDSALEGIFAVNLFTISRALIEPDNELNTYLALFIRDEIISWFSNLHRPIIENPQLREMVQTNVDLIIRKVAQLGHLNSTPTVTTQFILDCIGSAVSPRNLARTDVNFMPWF

| Binder | binding result (Sgf73) | binding result (Taf12) | binding result (Spt20) | binding result (Tra1) |
| --- | --- | --- | --- | --- |
| B1 | binds | binds | – | – |
| B2 | binds | – | binds | binds |
